Test results as given in US20240287186A1.

Molecular target: CD3 (target of Table E-1) (UniProt P07766)
Assay: Biacore (SPR; format not stated)

- Kd: 9.62 nM
Substance: Anti-CD3 Fab OKT3
